Results on two molecules are retold here after patent US20110182817A1 (NATIONAL UNIVERSITY CORPORATION OKAYAMA UNIVERSITY, published 2011).

In the assay the target is T1, human LDL oxidatively modified by copper sulfate (human, UniProt P04114 28-4563, limits assumed, oxidatively modified by copper sulfate).
T1 construct: Lipoprotein particle; also called oxidized LDL
The assay can be described thus: ELISA on immobilized Cu-oxidized human LDL, anti-mouse IgM-HRP. How it is done:
50 μl of […] human LDL oxidatively modified by copper sulfate was added to each well of 96-well microtiter plates (Immulon-2), and incubated at 4° C. overnight. After washing with PBS-Tween, the plates were blocked with 0.5% BSA-PBS. Test samples (culture supernatants appropriately diluted with PBS containing 0.1% BSA) were incubated in the plates at room temperature for one hour. After the plates were washed three times with PBS-Tween, an HRP-labeled anti-mouse IgM antibody was incubated in the plates at room temperature for one hour. After the plates were washed three times with PBS-Tween, 0.03% H₂O₂ and 0.1 M citrate buffer […] containing 0.4 mg/ml orthophenylenediamine (OPD) were added to the plates. After ten minutes of incubation, the reaction was stopped by adding an equal volume of 2N H₂SO₄. Absorbance was measured at 490 nm (FIG. 2). FIG. 2 is a graph showing the reactivities of monoclonal antibodies to NLO and oxidized LDL. The monoclonal antibodies were produced by hybridomas of the established five clones.

T1 sequence (P04114 28-4563 limits assumed): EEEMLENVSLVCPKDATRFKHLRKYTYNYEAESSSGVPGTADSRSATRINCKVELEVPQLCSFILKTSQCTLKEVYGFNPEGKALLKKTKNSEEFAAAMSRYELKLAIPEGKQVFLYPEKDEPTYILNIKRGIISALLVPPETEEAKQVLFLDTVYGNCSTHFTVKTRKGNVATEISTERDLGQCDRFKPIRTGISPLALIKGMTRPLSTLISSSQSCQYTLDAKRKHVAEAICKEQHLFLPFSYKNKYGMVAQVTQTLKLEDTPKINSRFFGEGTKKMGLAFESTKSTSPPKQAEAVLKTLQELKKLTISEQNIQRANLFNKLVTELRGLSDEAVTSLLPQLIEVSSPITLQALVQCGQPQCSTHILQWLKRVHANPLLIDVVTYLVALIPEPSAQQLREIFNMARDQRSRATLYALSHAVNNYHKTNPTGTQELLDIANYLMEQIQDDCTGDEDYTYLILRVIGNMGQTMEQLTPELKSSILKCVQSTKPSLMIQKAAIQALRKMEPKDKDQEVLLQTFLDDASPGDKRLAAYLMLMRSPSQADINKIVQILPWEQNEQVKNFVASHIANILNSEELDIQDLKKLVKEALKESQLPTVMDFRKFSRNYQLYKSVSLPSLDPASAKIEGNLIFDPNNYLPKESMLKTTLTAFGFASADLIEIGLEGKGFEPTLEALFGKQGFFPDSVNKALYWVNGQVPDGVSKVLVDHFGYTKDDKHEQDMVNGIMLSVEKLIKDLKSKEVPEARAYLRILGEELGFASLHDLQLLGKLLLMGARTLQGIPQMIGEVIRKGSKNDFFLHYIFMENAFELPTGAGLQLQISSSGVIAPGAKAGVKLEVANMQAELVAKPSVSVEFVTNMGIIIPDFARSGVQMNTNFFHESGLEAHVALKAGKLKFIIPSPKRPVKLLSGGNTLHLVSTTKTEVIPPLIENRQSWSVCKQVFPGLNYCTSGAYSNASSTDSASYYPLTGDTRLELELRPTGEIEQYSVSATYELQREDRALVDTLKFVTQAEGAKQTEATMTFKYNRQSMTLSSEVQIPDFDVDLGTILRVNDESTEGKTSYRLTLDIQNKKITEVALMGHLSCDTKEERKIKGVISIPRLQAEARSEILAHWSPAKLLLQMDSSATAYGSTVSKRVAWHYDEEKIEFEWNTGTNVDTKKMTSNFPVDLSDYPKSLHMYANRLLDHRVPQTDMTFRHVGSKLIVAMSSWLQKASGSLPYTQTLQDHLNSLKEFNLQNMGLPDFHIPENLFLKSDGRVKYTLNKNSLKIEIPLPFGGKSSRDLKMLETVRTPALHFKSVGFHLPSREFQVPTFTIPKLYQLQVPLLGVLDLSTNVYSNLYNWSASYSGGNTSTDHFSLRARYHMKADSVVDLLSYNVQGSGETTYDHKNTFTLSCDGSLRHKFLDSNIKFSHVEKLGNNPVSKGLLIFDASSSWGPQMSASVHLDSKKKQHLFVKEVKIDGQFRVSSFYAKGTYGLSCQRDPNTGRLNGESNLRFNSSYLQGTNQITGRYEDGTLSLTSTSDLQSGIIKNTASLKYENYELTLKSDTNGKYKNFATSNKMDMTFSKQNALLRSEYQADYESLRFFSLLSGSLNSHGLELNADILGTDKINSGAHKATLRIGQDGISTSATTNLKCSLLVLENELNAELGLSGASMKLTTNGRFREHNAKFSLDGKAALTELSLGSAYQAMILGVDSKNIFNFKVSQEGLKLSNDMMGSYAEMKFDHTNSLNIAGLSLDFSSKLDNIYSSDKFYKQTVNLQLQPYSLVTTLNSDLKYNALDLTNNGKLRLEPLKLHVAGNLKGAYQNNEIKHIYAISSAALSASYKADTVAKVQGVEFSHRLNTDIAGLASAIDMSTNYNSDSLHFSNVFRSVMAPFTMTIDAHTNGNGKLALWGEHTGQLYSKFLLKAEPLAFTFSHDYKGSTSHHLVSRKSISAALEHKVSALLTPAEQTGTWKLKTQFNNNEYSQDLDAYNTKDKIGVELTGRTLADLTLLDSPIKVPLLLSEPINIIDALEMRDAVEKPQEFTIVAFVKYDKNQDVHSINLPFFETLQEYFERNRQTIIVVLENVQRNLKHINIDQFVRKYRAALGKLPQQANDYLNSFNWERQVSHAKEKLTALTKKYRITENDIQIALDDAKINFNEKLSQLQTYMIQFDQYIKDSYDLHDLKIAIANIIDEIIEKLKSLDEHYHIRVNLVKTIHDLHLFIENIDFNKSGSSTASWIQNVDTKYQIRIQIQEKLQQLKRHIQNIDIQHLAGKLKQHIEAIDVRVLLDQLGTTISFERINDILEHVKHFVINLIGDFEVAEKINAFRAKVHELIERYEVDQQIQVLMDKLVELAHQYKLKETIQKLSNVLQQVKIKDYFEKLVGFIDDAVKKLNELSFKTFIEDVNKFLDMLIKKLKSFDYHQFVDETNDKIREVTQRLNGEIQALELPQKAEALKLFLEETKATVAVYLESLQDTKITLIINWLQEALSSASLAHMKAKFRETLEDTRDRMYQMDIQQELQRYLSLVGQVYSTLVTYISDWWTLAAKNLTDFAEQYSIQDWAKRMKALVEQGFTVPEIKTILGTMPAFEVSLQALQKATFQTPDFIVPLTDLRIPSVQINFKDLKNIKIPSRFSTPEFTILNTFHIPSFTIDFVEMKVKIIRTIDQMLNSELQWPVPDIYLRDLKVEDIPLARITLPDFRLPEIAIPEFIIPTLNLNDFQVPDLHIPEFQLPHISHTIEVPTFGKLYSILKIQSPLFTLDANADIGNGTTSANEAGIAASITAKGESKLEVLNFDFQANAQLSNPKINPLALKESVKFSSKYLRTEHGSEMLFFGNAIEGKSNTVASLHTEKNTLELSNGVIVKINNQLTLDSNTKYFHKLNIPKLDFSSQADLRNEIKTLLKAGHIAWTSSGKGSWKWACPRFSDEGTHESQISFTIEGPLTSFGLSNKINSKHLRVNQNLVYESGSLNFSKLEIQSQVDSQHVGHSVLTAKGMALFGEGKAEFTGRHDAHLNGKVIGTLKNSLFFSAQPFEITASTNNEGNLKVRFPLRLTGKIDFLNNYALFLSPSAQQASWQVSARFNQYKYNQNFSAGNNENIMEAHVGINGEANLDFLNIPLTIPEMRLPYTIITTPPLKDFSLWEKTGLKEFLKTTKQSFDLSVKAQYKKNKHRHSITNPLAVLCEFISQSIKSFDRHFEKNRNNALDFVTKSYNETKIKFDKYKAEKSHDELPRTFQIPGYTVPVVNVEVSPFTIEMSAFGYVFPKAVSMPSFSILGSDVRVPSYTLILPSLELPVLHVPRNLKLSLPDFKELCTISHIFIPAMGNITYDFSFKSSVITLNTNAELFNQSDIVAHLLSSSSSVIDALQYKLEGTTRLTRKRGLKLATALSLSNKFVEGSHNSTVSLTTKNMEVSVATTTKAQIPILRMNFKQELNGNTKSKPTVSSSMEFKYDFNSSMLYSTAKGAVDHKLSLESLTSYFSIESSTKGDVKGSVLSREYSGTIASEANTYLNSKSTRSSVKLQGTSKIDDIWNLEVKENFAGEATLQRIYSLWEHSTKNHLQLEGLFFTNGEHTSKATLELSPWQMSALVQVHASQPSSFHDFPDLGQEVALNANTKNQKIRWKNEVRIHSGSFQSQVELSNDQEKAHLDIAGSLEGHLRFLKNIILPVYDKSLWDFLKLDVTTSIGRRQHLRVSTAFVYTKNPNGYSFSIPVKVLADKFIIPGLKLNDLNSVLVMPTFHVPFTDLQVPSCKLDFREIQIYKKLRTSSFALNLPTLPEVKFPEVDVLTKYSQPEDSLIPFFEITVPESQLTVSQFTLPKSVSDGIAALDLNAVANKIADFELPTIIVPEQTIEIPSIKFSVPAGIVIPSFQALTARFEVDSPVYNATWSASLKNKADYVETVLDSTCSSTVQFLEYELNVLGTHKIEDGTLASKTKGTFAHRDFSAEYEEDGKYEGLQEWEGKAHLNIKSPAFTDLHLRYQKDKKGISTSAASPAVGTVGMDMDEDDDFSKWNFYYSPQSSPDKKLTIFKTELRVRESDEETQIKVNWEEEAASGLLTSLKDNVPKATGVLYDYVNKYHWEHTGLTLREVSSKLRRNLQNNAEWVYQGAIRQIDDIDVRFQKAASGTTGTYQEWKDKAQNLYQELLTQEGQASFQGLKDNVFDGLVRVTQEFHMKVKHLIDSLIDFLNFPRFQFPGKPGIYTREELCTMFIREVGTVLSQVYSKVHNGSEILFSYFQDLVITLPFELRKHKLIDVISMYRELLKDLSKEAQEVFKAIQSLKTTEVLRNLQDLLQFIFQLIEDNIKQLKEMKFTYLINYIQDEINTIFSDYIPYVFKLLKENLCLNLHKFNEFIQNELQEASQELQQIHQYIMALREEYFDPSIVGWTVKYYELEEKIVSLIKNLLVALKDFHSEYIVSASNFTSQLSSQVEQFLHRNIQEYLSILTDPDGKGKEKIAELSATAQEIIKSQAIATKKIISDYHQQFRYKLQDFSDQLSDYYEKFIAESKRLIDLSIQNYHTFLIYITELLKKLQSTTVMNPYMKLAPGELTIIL

B1: CL56-369 (antibody, IgM, V domains shown)
VH: QVQLQQPGAELVKPGASVKLSCKASGYTFTSYWMHWVKQRPGQGLEWIGEIDPSDSYTNYNQKFKGKATLTVDKSSSTAYMQLSSLTSEDSAVYYCARGDMDAMDYWGQGTSVTVSS
VL: ETTVTQSPASLSMAIGEKVTIRCITSTDIDDDMNWYQQKPGEPPKLLISEGNTLRPGVPSRFSSSGYGTDFVFTIENMLSEDVADYYCLQSDNLPLTFGAGTKLELK
notes: Mouse monoclonal IgM, kappa, from mice immunized with arteriosclerotic plaque homogenate
As for B1, the binding result is given as “no binding”.

B2: CL48-139 (antibody, IgM, V domains shown)
VH: EGQLQQSGAEVVKPGASVKLSCTASGFNIKDTYIHWVKQRPEQGLEWIGRIDPTNGNTKYDPEFQGKATITADTSSNTAYLHLSGLTSEDTAVYYCAKGTLFAYWGQGTLVTVSA
VL: DIKMTQSPSSMYASLGERVTFTCKASQDINNYLTWVQQKPGKSPKTLIYRANRLVDGVPSRFSGSGSGQDYSLTISSLEYEDMGIYYCLQYDEFPPTFGGGTKLEIK
notes: as for B1
In the case of B2, the binding result is given as “no binding”.
